From the supplement of paper PMC11246515
± gives the standard deviation of the averaged measurements.

Assay: total protein half-life in vivo (active degradation + dilution); higher = more stable protein
[1] = wild type E. coli NCM3722, growth: C-lim chemostat, doubling time 12 h
[2] = E. coli NCM3722 delta-clpP delta-lon delta-hslV, growth: N-lim chemostat, doubling time 6 h
[3] = E. coli NCM3722 delta-clpP, growth: N-lim chemostat, doubling time 6 h
[4] = E. coli NCM3722 delta-hslV, growth: N-lim chemostat, doubling time 6 h
[5] = E. coli NCM3722 delta-lon, growth: N-lim chemostat, doubling time 6 h
[6] = E. coli NCM3722 delta-smpB, growth: N-lim chemostat, doubling time 6 h
[7] = wild type E. coli NCM3722, growth: C-lim chemostat, doubling time 3 h
[8] = wild type E. coli NCM3722, growth: C-lim chemostat, doubling time 6 h
[9] = wild type E. coli NCM3722, growth: N-lim chemostat, doubling time 6 h
[10] = wild type E. coli NCM3722, growth: N-lim chemostat, doubling time 12 h
[11] = wild type E. coli NCM3722, growth: P-lim chemostat, doubling time 6 h
[12] = wild type E. coli NCM3722, growth: P-lim chemostat, doubling time 12 h

Row | Sequence | total protein half-life in vivo [1] | total protein half-life in vivo [2] | total protein half-life in vivo [3] | total protein half-life in vivo [4] | total protein half-life in vivo [5] | total protein half-life in vivo [6] | total protein half-life in vivo [7] | total protein half-life in vivo [8] | total protein half-life in vivo [9] | total protein half-life in vivo [10] | total protein half-life in vivo [11] | total protein half-life in vivo [12]
1 | MKHGIKALLITLSLACAGMSHSALAAASVAKPTAVETKAEAPAAQSKAAVPAKASDEEGTRVSINNASAEELARAMNGVGLKKAQAIVSYREEYGPFKTVEDLKQVPGMGNSLVERNLAVLTL [P0AAR8] | 3.36 h |  |  |  |  |  |  |  |  |  |  | 
2 | MITLWGRNNSTNVKKVLLTLEELELPYEQILAGREFGINHDADFLAMNPNGLVPLLRDDESDLILWESNAIVRYLAAQYGQKRLWIDSPARRAEAEKWMDWANQTLSNAHRGILMGLVRTPPEERDQAAIDASCKECDALFALLDAELAKVKWFSGDEFGVGDIAIAPFIYNLFNVGLTWTPRPNLQRWYQQLTERPAVRKVVMIPVS [P0ACA7] | 9.3 ± 0.54 h | 5.15 ± 0.42 h | 4.47 ± 0.4 h | 5.27 ± 1.5 h | 4.6 ± 0.45 h | 4.53 ± 0.24 h | 2.9 ± 0.27 h | 6.21 ± 0.49 h | 4.49 ± 0.48 h | 7.89 ± 0.23 h | 5.74 ± 0.36 h | 12.1 ± 0.25 h
3 | MTTLTLVLTAVGSVLLLLFLVMKARMHAFLALMVVSMGAGLFSGMPLDKIAATMEKGMGGTLGFLAVVVALGAMFGKILHETGAVDQIAVKMLKSFGHSRAHYAIGLAGLVCALPLFFEVAIVLLISVAFSMARHTGTNLVKLVIPLFAGVAAAAAFLVPGPAPMLLASQMNADFGWMILIGLCAAIPGMIIAGPLWGNFISRYVELHIPDDISEPHLGEGKMPSFGFSLSLILLPLVLVGLKTIAARFVPEGSTAYEWFEFIGHPFTAILVACLVAIYGLAMRQGMPKDKVMEICGHALQPAGIILLVIGAGGVFKQVLVDSGVGPALGEALTGMGLPIAITCFVLAAAVRIIQGSATVACLTAVGLVMPVIEQLNYSGAQMAALSICIAGGSIVVSHVNDAGFWLFGKFTGATEAETLKTWTMMETILGTVGAIVGMIAFQLLS [P0AC96] |  |  | 6.49 h | 5.93 h |  |  |  |  | 5.18 h |  |  | 12.9 h
4 | MSAGRLNKKSLGIVMLLSVGLLLAGCSGSKSSDTGTYSGSVYTVKRGDTLYRISRTTGTSVKELARLNGISPPYTIEVGQKLKLGGAKSSSITRKSTAKSTTKTASVTPSSAVPKSSWPPVGQRCWLWPTTGKVIMPYSTADGGNKGIDISAPRGTPIYAAGAGKVVYVGNQLRGYGNLIMIKHSEDYITAYAHNDTMLVNNGQSVKAGQKIATMGSTDAASVRLHFQIRYRATAIDPLRYLPPQGSKPKC | 9.64 ± 0.25 h |  | 6.06 ± 0.3 h | 6.34 ± 0.85 h | 6.04 ± 0.44 h | 5.693 ± 0.011 h | 3.22 ± 0.21 h | 5.4794 ± 0.0017 h | 5.64 ± 0.52 h | 10.8 ± 0.38 h | 6.32 ± 0.37 h | 13.3 ± 0.95 h
5 | MSEALLNAGRQTLMLELQEASRLPERLGDDFVRAANIILHCEGKVVVSGIGKSGHIGKKIAATLASTGTPAFFVHPAEALHGDLGMIESRDVMLFISYSGGAKELDLIIPRLEDKSIALLAMTGKPTSPLGLAAKAVLDISVEREACPMHLAPTSSTVNTLMMGDALAMAVMQARGFNEEDFARSHPAGALGARLLNKVHHLMRRDDAIPQVALTASVMDAMLELSRTGLGLVAVCDAQQQVQGVFTDGDLRRWLVGGGALTTPVNEAMTVGGTTLQSQSRAIDAKEILMKRKITAAPVVDENGKLTGAINLQDFYQAGII | 9.87 ± 2.3 h | 5.02 ± 0.39 h | 4.77 ± 0.57 h | 4.52 ± 0.3 h | 4.85 ± 0.39 h | 4.33 ± 0.28 h | 3.14 ± 0.043 h | 5.34 ± 0.49 h | 4.55 ± 0.18 h | 7.014 ± 0.018 h | 5.2 ± 0.36 h | 12.3 ± 0.49 h
6 | MRTSQYLLSTLKETPADAEVISHQLMLRAGMIRKLASGLYTWLPTGVRVLKKVENIVREEMNNAGAIEVSMPVVQPADLWQESGRWEQYGPELLRFVDRGERPFVLGPTHEEVITDLIRNELSSYKQLPLNFYQIQTKFRDEVRPRFGVMRSREFLMKDAYSFHTSQESLQETYDAMYAAYSKIFSRMGLDFRAVQADTGSIGGSASHEFQVLAQSGEDDVVFSDTSDYAANIELAEAIAPKEPRAAATQEMTLVDTPNAKTIAELVEQFNLPIEKTVKTLLVKAVEGSSFPQVALLVRGDHELNEVKAEKLPQVASPLTFATEEEIRAVVKAGPGSLGPVNMPIPVVIDRTVAAMSDFAAGANIDGKHYFGINWDRDVATPEVADIRNVVAGDPSPDGQGRLLIKRGIEVGHIFQLGTKYSEALKASVQGEDGRNQILTMGCYGIGVTRVVAAAIEQNYDERGIVWPDAIAPFQVAILPMNMHKSFRVQELAEKLYSELRAQGIEVLLDDRKERPGVMFADMELIGIPHTIVLGDRNLDNDDIEYKYRRNGEKQLIKTGDIVEYLVKQIKG | 10.9 ± 0.57 h | 5.92 ± 0.2 h | 5.61 ± 0.85 h | 5.37 ± 0.21 h | 6.14 ± 0.13 h | 5.24 ± 0.2 h | 3.1 ± 0.061 h | 6.12 ± 0.33 h | 5.4 ± 0.19 h | 10.6 ± 0.72 h | 6.14 ± 0.17 h | 12.2 ± 1.2 h
7 | MSESLHLTRNGSILEITLDRPKANAIDAKTSFEMGEVFLNFRDDPQLRVAIITGAGEKFFSAGWDLKAAAEGEAPDADFGPGGFAGLTEIFNLDKPVIAAVNGYAFGGGFELALAADFIVCADNASFALPEAKLGIVPDSGGVLRLPKILPPAIVNEMVMTGRRMGAEEALRWGIVNRVVSQAELMDNARELAQQLVNSAPLAIAALKEIYRTTSEMPVEEAYRYIRSGVLKHYPSVLHSEDAIEGPLAFAEKRDPVWKGR | 8.84 ± 0.32 h |  |  |  |  | 3.5 h | 2.96 ± 0.038 h | 4.96 ± 0.18 h |  | 5.66 h | 5.25 ± 0.44 h | 10.5 ± 0.97 h
8 | MVKLAFPRELRLLTPSQFTFVFQQPQRAGTPQITILGRLNSLGHPRIGLTVAKKNVRRAHERNRIKRLTRESFRLRQHELPAMDFVVVAKKGVADLDNRALSEALEKLWRRHCRLARGS [P0A7Y8] | 8.06 h |  | 5.44 h | 4.21 h | 6.46 ± 0.22 h | 3.76 ± 0.17 h | 3.11 ± 0.27 h | 4.82 ± 0.15 h | 3.63 ± 0.43 h | 7.32 ± 2.1 h | 3.7 h | 7.12 ± 0.64 h
9 | MLKLTDITWLYHHLPMRFSLTVERGEQVAILGPSGAGKSTLLNLIAGFLTPASGSLTIDGVDHTTMPPSRRPVSMLFQENNLFSHLTVAQNIGLGLNPGLKLNAVQQGKMHAIARQMGIDNLMARLPGELSGGQRQRVALARCLVREQPILLLDEPFSALDPALRQEMLTLVSTSCQQQKMTLLMVSHSVEDAARIATRSVVVADGRIAWQGMTNELLSGKASASALLGITG | 10.9 ± 0.42 h | 4.96 ± 0.61 h | 5.67 ± 0.82 h | 6.21 ± 1.1 h | 5.79 ± 0.26 h | 5.31 ± 0.54 h | 3.03 ± 0.11 h | 5.94 ± 0.4 h | 5.13 ± 0.15 h | 12.6 ± 1.7 h | 5.54 ± 0.3 h | 11.98 ± 0.032 h
